Data: US6350430B1, “Melanocortin receptor ligands and methods of using same” (Lion Bioscience Science AG, priority 1997, dated 2002)
*1 amine or outer side, *2 acyl side, *3 side chain or, on linkers, in order; H or OH if unused. Where a SMILES comes first, the peptide text is derived from it. [ ]: non-standard residue; d: D form. The star is where a group is joined. dPhe(4-125I) = para-(125I)iodo-D-phenylalanine, O=C([C@@H](Cc1ccc([125I])cc1)N[*:1])[*:2]; dPhe(4-Cl) = N[C@H](Cc1ccc(Cl)cc1)C(=O)O; dPhe(4-I) = N[C@H](Cc1ccc(I)cc1)C(=O)O; 2Nal = N[C@@H](Cc1ccc2ccccc2c1)C(=O)O; d2Nal = N[C@H](Cc1ccc2ccccc2c1)C(=O)O; Fmoc = O=C(OCC1c2ccccc2-c2ccccc21)*; Cha = N[C@@H](CC1CCCCC1)C(=O)O; d2Thi = N[C@H](Cc1cccs1)C(=O)O; Nle = CCCC[C@H](N)C(=O)O

Key:
[1] = target: MC receptors of mouse B16 cells (mouse); test: competition binding, mouse B16 cells; tracer not stated
[2] = target: MC receptors in rat brain homogenate; test: Melanocortin receptor binding assay using ^125I-HP 467 in rat brain homogenate; conditions: individual tetrapeptides
Description: For assays, fine chemicals were obtained from Sigma (St. Louis Mo.) and GF/B plates and MICROSCINT were obtained from Packard Instrument Co. (Meriden Conn.). Frozen rat brains were thawed and the thalamus and hypothalamus were dissected out and weighed. The tissue was homogenized in 40 ml buffer A (50 mM Tris-HCl, 2 mM EDTA, 10 mM CaCl2, 100 μM PMSF, pH 7.4) in a Dounce homogenizer. The homogenate was centrifuged at 39,000×g for 10 min, resuspended in 20 ml fresh buffer and recentrifuged. The pellet was resuspended in 80 ml buffer B (50 mM Tris-HCl, 2 mM EDTA, 10 mM CaCl2, 5 mM MgCl2, 100 μM PMSF, pH 7.4). ^125I-HP 467 was custom labeled by Amersham to a specific activity of 2000 Ci/mmol (Amersham; Arlington Heights IL). Fifty pM ^125I-HP 467 and 0.2 mg protein/ml membrane suspension containing 2 mg/ml BSA was added to each assay tube.
Competition assays were performed using α-MSH, γ1-MSH, γ2-MSH, γ3-MSH and ACTH (4-10) also containing 1 mM phenanthroline, 200 μg/ml bacitracin, and 5 μg/ml leupeptin. Tubes were incubated for 2 hours at 37° C. The assay was terminated by filtration through GF/B filters previously soaked in 5 mg/ml BSA Tris-HCl buffer. The samples were washed with Tris-HCl, dried and counted in Packard Minaxl gamma counter (Packard Instrument Co.).
IC50 values were determined in brain tissue as described in Example III.

[3] = target: MC receptors in rat brain homogenate (rat); test: competition binding, rat brain membranes
[4] = target: T1, MC receptor in mouse B16 cells (Mus musculus, UniProt Q01727); test: MC receptor binding activity in mouse B16 cells; conditions: individual tetrapeptides
T1 construct: endogenous in cells; host or cells: mouse B16 cells
From the text: The 36 peptides were screened for MC receptor binding activity in rat brain and in mouse B16 cells.

[5] = target: T2, hMC3 (Homo sapiens, UniProt P41968); test: Displacement of ^125I-HP 467 in transfected mouse L cells expressing hMC3; conditions: receptor expressed in mouse L cells, read-out: Binding IC50, MC-3
T2 construct: expressed in transfected cells; host or cells: mouse L cells

[6] = target: T3, hMC5 (Homo sapiens, UniProt P33032); test: Displacement of ^125I-HP 467 in HEK 293 cells expressing hMC5; conditions: receptor expressed in HEK 293 cells, read-out: Binding IC50, MC-5
T3 construct: expressed in transfected cells; host or cells: HEK 293 cells

[7] = target: T4, hMC4 (Homo sapiens, UniProt P32245); test: Displacement of ^125I-HP 467 in transfected mouse L cells expressing hMC4; conditions: receptor expressed in mouse L cells, read-out: Binding IC50, MC-4
T4 construct: expressed in transfected cells; host or cells: mouse L cells

[8] = target: T5, hMC1 (Homo sapiens, UniProt Q01726); test: Displacement of ^125I-HP 467 in transfected mouse L cells expressing hMC1; conditions: receptor expressed in mouse L cells, read-out: Binding IC50, MC-1
T5 construct: expressed in transfected cells; host or cells: mouse L cells

[9] = target: MC receptors in rat brain homogenate; test: Melanocortin receptor binding assay using ^125I-HP 467 in rat brain homogenate; conditions: saturation binding to rat brain membranes
[10] = target: human melanocortin receptor 3 (human) (UniProt P41968); test: saturation radioligand binding; mouse L cells expressing MC3
[11] = target: human melanocortin receptor 3 (human) (UniProt P41968); test: saturation radioligand binding; HEK 293 cells expressing MC3
[12] = target: human melanocortin receptor 1 (human) (UniProt Q01726); test: saturation radioligand binding; HEK 293 cells expressing MC1
[13] = target: human melanocortin receptor 4 (human) (UniProt P32245); test: saturation radioligand binding; mouse L cells expressing MC4
[14] = target: human melanocortin receptor 1 (human) (UniProt Q01726); test: saturation radioligand binding; mouse L cells expressing MC1
[15] = system: Sprague-Dawley rats; test: HP 467 antagonism of HP 228 induced hypophagia (food intake); assay type: in vivo; conditions: IP BID, HP 228 1.5 mg/kg, HP 467 3.0 mg/kg
Description: Male Sprague-Dawley rats weighing 250 to 300 grams were divided into three treatment groups of 8 rats each. The control group received IP saline injections BID (1 ml/kg) at 8 AM and 4 PM. […] After each injection, each rat immediately received a second injection. […] All injections started at 4 PM on day 0 and ended on the afternoon of day 2. Food consumption and body weight measurements were taken daily, each morning.

[16] = target: MC receptors in rat brain homogenate (rat); test: saturation radioligand binding, rat brain membranes

Chain of MC receptors of mouse B16 cells (mouse) (Q01727 whole entry): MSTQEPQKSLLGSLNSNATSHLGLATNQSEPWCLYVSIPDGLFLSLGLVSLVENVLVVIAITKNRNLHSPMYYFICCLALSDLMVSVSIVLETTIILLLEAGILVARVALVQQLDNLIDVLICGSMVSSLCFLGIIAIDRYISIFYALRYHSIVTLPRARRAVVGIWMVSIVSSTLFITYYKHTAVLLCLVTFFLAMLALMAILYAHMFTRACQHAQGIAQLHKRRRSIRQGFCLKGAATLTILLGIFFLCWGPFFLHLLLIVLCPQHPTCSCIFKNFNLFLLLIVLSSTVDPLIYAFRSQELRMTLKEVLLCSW
T3 sequence (P33032 whole entry): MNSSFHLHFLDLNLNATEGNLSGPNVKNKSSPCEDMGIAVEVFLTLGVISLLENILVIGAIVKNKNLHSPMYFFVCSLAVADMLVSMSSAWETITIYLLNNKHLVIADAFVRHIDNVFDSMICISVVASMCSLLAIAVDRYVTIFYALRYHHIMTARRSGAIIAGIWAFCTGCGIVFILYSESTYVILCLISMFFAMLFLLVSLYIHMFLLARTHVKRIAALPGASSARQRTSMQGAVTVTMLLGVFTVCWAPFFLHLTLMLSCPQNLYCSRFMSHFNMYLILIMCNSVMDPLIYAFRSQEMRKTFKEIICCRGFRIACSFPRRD
Chain of human melanocortin receptor 1 (human) (Q01726 whole entry): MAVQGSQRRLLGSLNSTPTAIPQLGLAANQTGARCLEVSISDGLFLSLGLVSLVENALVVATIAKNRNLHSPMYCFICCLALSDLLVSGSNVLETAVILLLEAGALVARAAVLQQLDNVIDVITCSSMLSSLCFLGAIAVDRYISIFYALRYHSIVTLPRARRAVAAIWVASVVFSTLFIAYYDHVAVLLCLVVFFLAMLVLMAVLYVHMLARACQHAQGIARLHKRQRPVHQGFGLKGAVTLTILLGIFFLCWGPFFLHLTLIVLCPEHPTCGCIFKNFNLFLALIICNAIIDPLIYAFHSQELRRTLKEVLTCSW
T5 sequence (Q01726 whole entry): as above
Chain of human melanocortin receptor 3 (human) (P41968 whole entry): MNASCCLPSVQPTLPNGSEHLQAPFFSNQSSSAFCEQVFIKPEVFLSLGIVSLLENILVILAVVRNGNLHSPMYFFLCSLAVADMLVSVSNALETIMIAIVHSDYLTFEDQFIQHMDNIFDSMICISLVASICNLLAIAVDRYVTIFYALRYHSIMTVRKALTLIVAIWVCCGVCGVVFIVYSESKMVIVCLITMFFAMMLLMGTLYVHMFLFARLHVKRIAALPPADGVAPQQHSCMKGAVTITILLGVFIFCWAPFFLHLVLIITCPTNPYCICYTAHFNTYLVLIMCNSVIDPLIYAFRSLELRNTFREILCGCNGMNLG
T4 sequence (P32245 whole entry): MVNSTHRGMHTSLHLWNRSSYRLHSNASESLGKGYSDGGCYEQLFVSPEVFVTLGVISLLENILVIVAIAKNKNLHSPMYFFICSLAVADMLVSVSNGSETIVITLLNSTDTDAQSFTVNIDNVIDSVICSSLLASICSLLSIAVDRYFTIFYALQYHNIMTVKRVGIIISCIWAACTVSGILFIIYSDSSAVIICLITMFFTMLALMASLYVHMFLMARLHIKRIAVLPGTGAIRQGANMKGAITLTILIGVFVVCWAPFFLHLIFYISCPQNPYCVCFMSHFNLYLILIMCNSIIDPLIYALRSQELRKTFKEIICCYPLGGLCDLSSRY
Chain of human melanocortin receptor 4 (human) (P32245 whole entry): as above
T1 sequence (Q01727 whole entry): as the sequence (Q01727 whole entry) above
T2 sequence (P41968 whole entry): as the sequence (P41968 whole entry) above

## Ac-H-(pcl-f)-(L-Cha)-r-NH2 (peptide)
[1]
  IC50: 156 nM

## CC(=O)NCCCC[C@H](NC(=O)OCC1c2ccccc2-c2ccccc21)C(=O)N[C@H](Cc1ccc(Cl)cc1)C(=O)N[C@@H](CCCNC(=N)N)C(=O)N[C@@H](Cc1ccc2ccccc2c1)C(N)=O [Ac-(αFmLys)-(pCl-f)-R-(Nal)-NH2] (Fmoc-K(Ac)[dPhe(4-Cl)]R[2Nal]-NH2)
[2]
  IC50: 427 nM

## CC(=O)NCCCC[C@H](NC(=O)OCC1c2ccccc2-c2ccccc21)C(=O)N[C@@H](CCCNC(=N)N)C(=O)N[C@@H](CCCNC(=N)N)C(=O)N[C@@H](Cc1ccc2ccccc2c1)C(N)=O [Ac-(αFmLys)-R-R-(Nal)-NH2] (Fmoc-K(Ac)RR[2Nal]-NH2)
[2]
  IC50: 2000 nM

## Ac-(αFmLys)-(pCl-f)-R-(Nal)-NH2 (peptide)
[1]
  IC50: 41 nM
[3]
  IC50: 427 nM

## CC(=O)N[C@@H](Cc1c[nH]cn1)C(=O)N[C@H](Cc1ccc(Cl)cc1)C(=O)N[C@@H](CC1CCCCC1)C(=O)N[C@H](CCCNC(=N)N)C(N)=O [Ac—H-(pcl-f)-(L-Cha)-r-NH2] (Ac-H[dPhe(4-Cl)][Cha][dR]-NH2)
[4]
  IC50: 156 nM
[2]
  IC50: > 5000 nM

## CC(=O)N[C@@H](Cc1c[nH]cn1)C(=O)N[C@H](Cc1ccc(Cl)cc1)C(=O)N[C@@H](CCCNC(=N)N)C(=O)N[C@H](Cc1ccc2ccccc2c1)C(N)=O [Ac—H-(pCl-f)-R-(D-Nal)-NH2, Ac-His-(pCl-f)-Arg-(D-Nal)-NH2] (Ac-H[dPhe(4-Cl)]R[d2Nal]-NH2)
[2]
  IC50: 51 nM
[2]; listed as Ac-His-(pCl-f)-Arg-(D-Nal)-NH2
  IC50: 18 nM

## Ac-(αFmLys)-R-R-(Nal)-NH2 (peptide)
[1]
  IC50: 1420 nM
[3]
  IC50: 2000 nM

## CCCC[C@H](NC(C)=O)C(=O)N[C@@H](CCC(N)=O)C(=O)N[C@@H](Cc1c[nH]cn1)C(=O)N[C@H](Cc1ccc(I)cc1)C(=O)N[C@@H](CCCNC(=N)N)C(=O)N[C@H](Cc1c[nH]c2ccccc12)C(=O)NCC(N)=O [HP 467, Ac-Nle-Gln-His-(p(I)-D-Phe)-Arg-(D-Trp)-Gly-NH2] (Ac-[Nle]QH[dPhe(4-I)]R[dW]G-NH2)
[5]
  IC50: 0.48 nM
[6]
  IC50: 0.46 nM
[7]
  IC50: 0.31 nM
[8]
  IC50: 0.23 nM

## Ac-(αFmLys)-R-(L-Cha)-(Nal)-NH2 (peptide)
[1]
  IC50: 1140 nM

## CC(=O)NCCCC[C@H](NC(=O)OCC1c2ccccc2-c2ccccc21)C(=O)N[C@@H](CCCNC(=N)N)C(=O)N[C@@H](CC1CCCCC1)C(=O)N[C@H](CCCNC(=N)N)C(N)=O [Ac-(αFmLys)-R-(L-Cha)-r-NH2] (Fmoc-K(Ac)R[Cha][dR]-NH2)
[2]
  IC50: 427 nM

## CCCC[C@H](NC(C)=O)C(=O)N[C@@H](CCC(N)=O)C(=O)N[C@@H](Cc1c[nH]cn1)C(=O)N[C@H](Cc1ccc(I)cc1)C(=O)N[C@@H](CCCNC(=N)N)C(=O)N[C@H](Cc1c[nH]c2ccccc12)C(=O)NCC(N)=O [^125I-HP 467, Ac-Nle-Gln-His-(p(^125I)-D-Phe)-Arg-(D-Trp)-Gly-NH2] (Ac-[Nle]QH[dPhe(4-I)]R[dW]G-NH2)
[9]
  Kd: 0.4 nM

## ^125I-HP 467, Ac-Nle-Gln-His-(p(^125I)-D-Phe)-Arg-(D-Trp)-Gly-NH2
[10]
  Kd: 0.04 nM
[11]
  Kd: 0.29 nM
[12]
  Kd: 0.132 nM
[13]
  Kd: 0.082 nM
[14]
  Kd: 0.092 nM

## CC(=O)N[C@@H](Cc1c[nH]cn1)C(=O)N[C@H](Cc1ccc(Cl)cc1)C(=O)N[C@@H](CCCNC(=N)N)C(=O)N[C@@H](Cc1ccc2ccccc2c1)C(N)=O [AC—H-(pcl-f)-R-(Nal)-NH2] (Ac-H[dPhe(4-Cl)]R[2Nal]-NH2)
[2]
  IC50: 18 nM

## Ac-H-(pCl-f)-R-(D-Nal)-NH2 (SEQ ID NO:18) (peptide)
[1]
  IC50: 19 nM
[3]
  IC50: 51 nM

## Ac-(αFmLys)-(D-Thi)-R-(Nal)-NH2 (peptide)
[3]
  IC50: 469 nM

## CC(=O)NCCCC[C@H](NC(=O)OCC1c2ccccc2-c2ccccc21)C(=O)N[C@@H](CCCNC(=N)N)C(=O)N[C@@H](CC1CCCCC1)C(=O)N[C@@H](Cc1ccc2ccccc2c1)C(N)=O [Ac-(αFmLys)-R-(L-Cha)-(Nal)-NH2] (Fmoc-K(Ac)R[Cha][2Nal]-NH2)
[2]
  IC50: > 4000 nM

## Ac-(αFmLys)-R-(L-Cha)-r-NH2 (peptide)
[1]
  IC50: 185 nM
[3]
  IC50: 427 nM

## CC(=O)NCCCC[C@H](NC(=O)OCC1c2ccccc2-c2ccccc21)C(=O)N[C@H](Cc1cccs1)C(=O)N[C@@H](CCCNC(=N)N)C(=O)N[C@@H](Cc1ccc2ccccc2c1)C(N)=O [Ac-(αFmLys)-(D-Thi)-R-(Nal)-NH2] (Fmoc-K(Ac)[d2Thi]R[2Nal]-NH2)
[2]
  IC50: 469 nM

## CCCC[C@H](NC(C)=O)C(=O)N[C@@H](CCC(N)=O)C(=O)N[C@@H](Cc1c[nH]cn1)C(=O)N[C@H](Cc1ccccc1)C(=O)N[C@@H](CCCNC(=N)N)C(=O)N[C@H](Cc1c[nH]c2ccccc12)C(=O)NCC(N)=O [HP 228, Ac-(Nle)QHfRwG-NH2, reference compound]
[6]
  IC50: 194 nM
[15]; Day 1
  Hypophagia (food intake) Change, Day 1: −6.8%
[15]; Day 2
  Hypophagia (food intake) Change, Day 2: −5.3%
[8]
  IC50: 1.49 nM

## AC-H-(pcl-f)-R-(Nal)-NH2 (peptide)
[1]
  IC50: 68 nM
[3]
  IC50: 18 nM

B1: ^125I-HP 467, Ac-Nle-Gln-His-(p(^125I)-D-Phe)-Arg-(D-Trp)-Gly-NH2 (peptide)
peptide: Ac-[Nle]QH[dPhe(4-125I)]R[dW]G-NH2
[16]
  Bmax (fmoles/mg protein): 21
  Kd: 0.4 nM
